In the Human Domainome abundance scans (Beltran et al. 2025):
± gives the uncertainty stated by the source.

B1: Segment polarity protein dishevelled homolog DVL-3, residues 2 to 81; numbered along this chain, Q92997 (parent)
chain: GETKIIYHLDGQETPYLVKLPLPAERVTLADFKGVLQRPSYKFFFKSMDDDFGVVKEEISDDNAKLPCFNGRVVSWLVSA

Variants of: B1
Assay: abundance fitness (aPCA) (normalised: wild type 0, dead -1); higher = more abundant; growth selection in yeast, the domain comes from the species named
Settings: Homo sapiens

Variant	abundance fitness
GETKIIYHLDGQETPYLVKLPLPAERWTLADFKGVLQRPSYKFFFKSMDDDFGVVKEEISDDNAKLPCFNGRVVSWLVSA [V27W]	-0.929 ± 0.14
GETKIIYHLDGQETPYLVKLPLPAERDTLADFKGVLQRPSYKFFFKSMDDDFGVVKEEISDDNAKLPCFNGRVVSWLVSA [V27D]	-0.987 ± 0.24
GETKIIYHLDGQETPYLVKLPLPAERSTLADFKGVLQRPSYKFFFKSMDDDFGVVKEEISDDNAKLPCFNGRVVSWLVSA [V27S]	-0.675 ± 0.1
GETKIIYHLDGQETPYLVKLPLPAERRTLADFKGVLQRPSYKFFFKSMDDDFGVVKEEISDDNAKLPCFNGRVVSWLVSA [V27R]	-0.875 ± 0.087
GETKIIYHLDGQETPYLVKLPLPAERETLADFKGVLQRPSYKFFFKSMDDDFGVVKEEISDDNAKLPCFNGRVVSWLVSA [V27E]	-0.624 ± 0.099
GETKIIYHLDGQETPYLVKLPLPAERTTLADFKGVLQRPSYKFFFKSMDDDFGVVKEEISDDNAKLPCFNGRVVSWLVSA [V27T]	-0.762 ± 0.16
GETKIIYHLDGQETPYLVKLPLPAERPTLADFKGVLQRPSYKFFFKSMDDDFGVVKEEISDDNAKLPCFNGRVVSWLVSA [V27P]	-0.656 ± 0.14
GETKIIYHLDGQETPYLVKLPLPAERKTLADFKGVLQRPSYKFFFKSMDDDFGVVKEEISDDNAKLPCFNGRVVSWLVSA [V27K]	-0.469 ± 0.11
GETKIIYHLDGQETPYLVKLPLPAERNTLADFKGVLQRPSYKFFFKSMDDDFGVVKEEISDDNAKLPCFNGRVVSWLVSA [V27N]	-0.785 ± 0.24
GETKIIYHLDGQETPYLVKLPLPAERITLADFKGVLQRPSYKFFFKSMDDDFGVVKEEISDDNAKLPCFNGRVVSWLVSA [V27I]	0.003 ± 0.1
GETKIIYHLDGQETPYLVKLPLPAERQTLADFKGVLQRPSYKFFFKSMDDDFGVVKEEISDDNAKLPCFNGRVVSWLVSA [V27Q]	-0.831 ± 0.18
GETKIIYHLDGQETPYLVKLPLPAERCTLADFKGVLQRPSYKFFFKSMDDDFGVVKEEISDDNAKLPCFNGRVVSWLVSA [V27C]	-0.119 ± 0.079
GETKIIYHLDGQETPYLVKLPLPAERGTLADFKGVLQRPSYKFFFKSMDDDFGVVKEEISDDNAKLPCFNGRVVSWLVSA [V27G]	-0.675 ± 0.063
GETKIIYHLDGQETPYLVKLPLPAERHTLADFKGVLQRPSYKFFFKSMDDDFGVVKEEISDDNAKLPCFNGRVVSWLVSA [V27H]	-0.664 ± 0.19
GETKIIYHLDGQETPYLVKLPLPAERYTLADFKGVLQRPSYKFFFKSMDDDFGVVKEEISDDNAKLPCFNGRVVSWLVSA [V27Y]	-0.651 ± 0.23
GETKIIYHLDGQETPYLVKLPLPAERFTLADFKGVLQRPSYKFFFKSMDDDFGVVKEEISDDNAKLPCFNGRVVSWLVSA [V27F]	-0.154 ± 0.12
GETKIIYHLDGQETPYLVKLPLPAERATLADFKGVLQRPSYKFFFKSMDDDFGVVKEEISDDNAKLPCFNGRVVSWLVSA [V27A]	-0.478 ± 0.079
GETKIIYHLDGQETPYLVKLPLPAERVTLDDFKGVLQRPSYKFFFKSMDDDFGVVKEEISDDNAKLPCFNGRVVSWLVSA [A30D]	-0.967 ± 0.2
GETKIIYHLDGQETPYLVKLPLPAERVTLEDFKGVLQRPSYKFFFKSMDDDFGVVKEEISDDNAKLPCFNGRVVSWLVSA [A30E]	-0.831 ± 0.14
GETKIIYHLDGQETPYLVKLPLPAERVTLCDFKGVLQRPSYKFFFKSMDDDFGVVKEEISDDNAKLPCFNGRVVSWLVSA [A30C]	-0.696 ± 0.15
GETKIIYHLDGQETPYLVKLPLPAERVTLFDFKGVLQRPSYKFFFKSMDDDFGVVKEEISDDNAKLPCFNGRVVSWLVSA [A30F]	-0.858 ± 0.21
GETKIIYHLDGQETPYLVKLPLPAERVLLADFKGVLQRPSYKFFFKSMDDDFGVVKEEISDDNAKLPCFNGRVVSWLVSA [T28L]	-0.73 ± 0.091
GETKIIYHLDGQETPYLVKLPLPAERVMLADFKGVLQRPSYKFFFKSMDDDFGVVKEEISDDNAKLPCFNGRVVSWLVSA [T28M]	-0.604 ± 0.11

Variant	abundance fitness
GETKIIYHLDGQETPYLVKLPLPAERVHLADFKGVLQRPSYKFFFKSMDDDFGVVKEEISDDNAKLPCFNGRVVSWLVSA [T28H]	-0.411 ± 0.14
GETKIIYHLDGQETPYLVKLPLPAERVRLADFKGVLQRPSYKFFFKSMDDDFGVVKEEISDDNAKLPCFNGRVVSWLVSA [T28R]	-0.379 ± 0.053
GETKIIYHLDGQETPYLVKLPLPAERVCLADFKGVLQRPSYKFFFKSMDDDFGVVKEEISDDNAKLPCFNGRVVSWLVSA [T28C]	-0.793 ± 0.16
GETKIIYHLDGQETPYLVKLPLPAERVGLADFKGVLQRPSYKFFFKSMDDDFGVVKEEISDDNAKLPCFNGRVVSWLVSA [T28G]	-0.597 ± 0.064
GETKIIYHLDGQETPYLVKLPLPAERVPLADFKGVLQRPSYKFFFKSMDDDFGVVKEEISDDNAKLPCFNGRVVSWLVSA [T28P]	-0.555 ± 0.1
GETKIIYHLDGQETPYLVKLPLPAERVKLADFKGVLQRPSYKFFFKSMDDDFGVVKEEISDDNAKLPCFNGRVVSWLVSA [T28K]	-0.52 ± 0.1
GETKIIYHLDGQETPYLVKLPLPAERVQLADFKGVLQRPSYKFFFKSMDDDFGVVKEEISDDNAKLPCFNGRVVSWLVSA [T28Q]	-0.811 ± 0.13
GETKIIYHLDGQETPYLVKLPLPAERVILADFKGVLQRPSYKFFFKSMDDDFGVVKEEISDDNAKLPCFNGRVVSWLVSA [T28I]	-0.578 ± 0.15
GETKIIYHLDGQETPYLVKLPLPAERVELADFKGVLQRPSYKFFFKSMDDDFGVVKEEISDDNAKLPCFNGRVVSWLVSA [T28E]	-0.985 ± 0.14
GETKIIYHLDGQETPYLVKLPLPAERVNLADFKGVLQRPSYKFFFKSMDDDFGVVKEEISDDNAKLPCFNGRVVSWLVSA [T28N]	-0.715 ± 0.15
GETKIIYHLDGQETPYLVKLPLPAERVDLADFKGVLQRPSYKFFFKSMDDDFGVVKEEISDDNAKLPCFNGRVVSWLVSA [T28D]	-0.401 ± 0.14
GETKIIYHLDGQETPYLVKLPLPAERVVLADFKGVLQRPSYKFFFKSMDDDFGVVKEEISDDNAKLPCFNGRVVSWLVSA [T28V]	-0.574 ± 0.073
GETKIIYHLDGQETPYLVKLPLPAERVFLADFKGVLQRPSYKFFFKSMDDDFGVVKEEISDDNAKLPCFNGRVVSWLVSA [T28F]	-0.321 ± 0.16
GETKIIYHLDGQETPYLVKLPLPAERVWLADFKGVLQRPSYKFFFKSMDDDFGVVKEEISDDNAKLPCFNGRVVSWLVSA [T28W]	-0.851 ± 0.12
GETKIIYHLDGQETPYLVKLPLPAERVSLADFKGVLQRPSYKFFFKSMDDDFGVVKEEISDDNAKLPCFNGRVVSWLVSA [T28S]	-0.757 ± 0.099
GETKIIYHLDGQETPYLVKLPLPAERVTQADFKGVLQRPSYKFFFKSMDDDFGVVKEEISDDNAKLPCFNGRVVSWLVSA [L29Q]	-0.91 ± 0.15
GETKIIYHLDGQETPYLVKLPLPAERVTTADFKGVLQRPSYKFFFKSMDDDFGVVKEEISDDNAKLPCFNGRVVSWLVSA [L29T]	-0.608 ± 0.098
GETKIIYHLDGQETPYLVKLPLPAERVTIADFKGVLQRPSYKFFFKSMDDDFGVVKEEISDDNAKLPCFNGRVVSWLVSA [L29I]	-0.675 ± 0.19
GETKIIYHLDGQETPYLVKLPLPAERVTNADFKGVLQRPSYKFFFKSMDDDFGVVKEEISDDNAKLPCFNGRVVSWLVSA [L29N]	-0.865 ± 0.22
GETKIIYHLDGQETPYLVKLPLPAERVTAADFKGVLQRPSYKFFFKSMDDDFGVVKEEISDDNAKLPCFNGRVVSWLVSA [L29A]	-0.639 ± 0.089
GETKIIYHLDGQETPYLVKLPLPAERVTKADFKGVLQRPSYKFFFKSMDDDFGVVKEEISDDNAKLPCFNGRVVSWLVSA [L29K]	-0.917 ± 0.14
GETKIIYHLDGQETPYLVKLPLPAERVTCADFKGVLQRPSYKFFFKSMDDDFGVVKEEISDDNAKLPCFNGRVVSWLVSA [L29C]	-0.287 ± 0.12
GETKIIYHLDGQETPYLVKLPLPAERVTDADFKGVLQRPSYKFFFKSMDDDFGVVKEEISDDNAKLPCFNGRVVSWLVSA [L29D]	-0.97 ± 0.21

Variant	abundance fitness
GETKIIYHLDGQETPYLVKLPLPAERVTMADFKGVLQRPSYKFFFKSMDDDFGVVKEEISDDNAKLPCFNGRVVSWLVSA [L29M]	-0.71 ± 0.15
GETKIIYHLDGQETPYLVKLPLPAERVTYADFKGVLQRPSYKFFFKSMDDDFGVVKEEISDDNAKLPCFNGRVVSWLVSA [L29Y]	-0.321 ± 0.16
GETKIIYHLDGQETPYLVKLPLPAERVTWADFKGVLQRPSYKFFFKSMDDDFGVVKEEISDDNAKLPCFNGRVVSWLVSA [L29W]	-0.783 ± 0.12
GETKIIYHLDGQETPYLVKLPLPAERVTHADFKGVLQRPSYKFFFKSMDDDFGVVKEEISDDNAKLPCFNGRVVSWLVSA [L29H]	-0.433 ± 0.14
GETKIIYHLDGQETPYLVKLPLPAERVTEADFKGVLQRPSYKFFFKSMDDDFGVVKEEISDDNAKLPCFNGRVVSWLVSA [L29E]	-0.782 ± 0.11
GETKIIYHLDGQETPYLVKLPLPAERVTSADFKGVLQRPSYKFFFKSMDDDFGVVKEEISDDNAKLPCFNGRVVSWLVSA [L29S]	-0.498 ± 0.078
GETKIIYHLDGQETPYLVKLPLPAERVTGADFKGVLQRPSYKFFFKSMDDDFGVVKEEISDDNAKLPCFNGRVVSWLVSA [L29G]	-0.643 ± 0.065
GETKIIYHLDGQETPYLVKLPLPAEPVTLADFKGVLQRPSYKFFFKSMDDDFGVVKEEISDDNAKLPCFNGRVVSWLVSA [R26P]	-0.675 ± 0.11
GETKIIYHLDGQETPYLVKLPLPAESVTLADFKGVLQRPSYKFFFKSMDDDFGVVKEEISDDNAKLPCFNGRVVSWLVSA [R26S]	-0.068 ± 0.055
GETKIIYHLDGQETPYLVKLPLPAEHVTLADFKGVLQRPSYKFFFKSMDDDFGVVKEEISDDNAKLPCFNGRVVSWLVSA [R26H]	-0.182 ± 0.12
GETKIIYHLDGQETPYLVKLPLPAEDVTLADFKGVLQRPSYKFFFKSMDDDFGVVKEEISDDNAKLPCFNGRVVSWLVSA [R26D]	-0.027 ± 0.091
GETKIIYHLDGQETPYLVKLPLPAEQVTLADFKGVLQRPSYKFFFKSMDDDFGVVKEEISDDNAKLPCFNGRVVSWLVSA [R26Q]	0.123 ± 0.056
GETKIIYHLDGQETPYLVKLPLPAETVTLADFKGVLQRPSYKFFFKSMDDDFGVVKEEISDDNAKLPCFNGRVVSWLVSA [R26T]	-0.188 ± 0.079
GETKIIYHLDGQETPYLVKLPLPAEGVTLADFKGVLQRPSYKFFFKSMDDDFGVVKEEISDDNAKLPCFNGRVVSWLVSA [R26G]	-0.441 ± 0.057
GETKIIYHLDGQETPYLVKLPLPAEMVTLADFKGVLQRPSYKFFFKSMDDDFGVVKEEISDDNAKLPCFNGRVVSWLVSA [R26M]	-0.276 ± 0.088
GETKIIYHLDGQETPYLVKLPLPAEKVTLADFKGVLQRPSYKFFFKSMDDDFGVVKEEISDDNAKLPCFNGRVVSWLVSA [R26K]	0.039 ± 0.066
GETKIIYHLDGQETPYLVKLPLPAECVTLADFKGVLQRPSYKFFFKSMDDDFGVVKEEISDDNAKLPCFNGRVVSWLVSA [R26C]	-0.102 ± 0.09
GETKIIYHLDGQETPYLVKLPLPAEVVTLADFKGVLQRPSYKFFFKSMDDDFGVVKEEISDDNAKLPCFNGRVVSWLVSA [R26V]	-0.08 ± 0.057
GETKIIYHLDGQETPYLVKLPLPAELVTLADFKGVLQRPSYKFFFKSMDDDFGVVKEEISDDNAKLPCFNGRVVSWLVSA [R26L]	-0.081 ± 0.05
GETKIIYHLDGQETPYLVKLPLPAEYVTLADFKGVLQRPSYKFFFKSMDDDFGVVKEEISDDNAKLPCFNGRVVSWLVSA [R26Y]	-0.414 ± 0.13
GETKIIYHLDGQETPYLVKLPLPAEEVTLADFKGVLQRPSYKFFFKSMDDDFGVVKEEISDDNAKLPCFNGRVVSWLVSA [R26E]	0.086 ± 0.054
GETKIIYHLDGQETPYLVKLPLPAEIVTLADFKGVLQRPSYKFFFKSMDDDFGVVKEEISDDNAKLPCFNGRVVSWLVSA [R26I]	-0.34 ± 0.14
GETKIIYHLDGQETPYLVKLPLPAEWVTLADFKGVLQRPSYKFFFKSMDDDFGVVKEEISDDNAKLPCFNGRVVSWLVSA [R26W]	-0.78 ± 0.11
